Data reported in publication PMC12160025, “Limitations of the radiotheranostic concept in neuroendocrine tumors due to lineage-dependent somatostatin receptor expression on hematopoietic stem and progenitor cells” (Theranostics, 2025).
Positions of bridges follow the written chain, without caps; N, C: chain ends. Non-standard residues stand in square brackets, D forms with d. Residues, ends and D or L forms follow the SMILES beside them. *: point of attachment. DOTA = O=C(O)CN1CCN(CC(=O)O)CCN(CC(=O)*)CCN(CC(=O)O)CC1; dPhe(4-NHCONH2) = NC(=O)Nc1ccc(C[C@@H](N)C(=O)O)cc1; Dihydroorotyl(S) = O=C1C[C@@H](C(=O)*)NC(=O)N1; Phe(4-Cl) = N[C@@H](Cc1ccc(Cl)cc1)C(=O)O; Phe(4-NH2) = Nc1ccc(C[C@H](N)C(=O)O)cc1

What was measured:
[1] = tested on: human CD34+ HSPC subpopulations; experiment: Cell proliferation (CellTrace Violet) and cell death after radioligand treatment; assay type: cell-based; conditions: 50 kBq/well, 4 days
Procedure: BMMCs were thawed in 90% IMDM with GlutaMAX, 10% FBS, and 20 µg/ml DNAse. Cells were washed and resuspended in cold FACS buffer for CD34+ isolation using the Miltenyi Biotec CD34 MicroBead Kit (#130-046-702) as per manufacturer instructions. CellTrace™ Violet (CTV, Thermo Scientific, C34557) staining was conducted based on the CD34^+ cell count (0.05 µl CTV/ml/ 1,500,000 cells) to determine the number of divisions undergone by a cell at the time of analysis. Following a 20 min incubation at 37 °C, the cells were centrifuged and resuspended in serum-free medium composed of IMDM with GlutaMAX and 20% BIT9500 (Stem Cell Technologies, 09500) supplemented with three cytokines involved in stem cell maintenance: SCF (50 ng/ml, PeproTech, 300-07), TPO (12.5 ng/ml, PeproTech, 300-18), andFlt3-L (50 ng/ml, PeproTech, 300-19). 30,000 cells were seeded in 24-well plates and analyzed by flow cytometry either immediately (day 0) or after a 4-day incubation period at 37 °C with 5% CO2 (day 4) following 30 min antibody staining and additional 15 min Annexin V (APC) binding (Biolegend, 640920). The antibodies used were as follow: CD34-APC-Cy7 (Biolegend, 343514), CD38-FITC (Biolegend, 356610), CD90-PE-Cy5 (Biolegend, 328112), CD123-PE (Biolegend, 306006), CD45RA-PE-Cy7 (Biolegend, 202316).
For radioligand treatment, cells were treated with 50 kBq/well (500 µl/well; 200 MBq/nmol) of^ 177Lu-DOTA-TOC or ^177Lu-DOTA-JR11 for the entire incubation period of 4 days. […] Untreated cells served as controls. A total of n=16 samples were analyzed.
In this experiment, flow cytometry was conducted on a Miltenyi MACSQuant analyzer equipped with three lasers - blue (488 nm, 30 mW), red (640 nm, 20mW), and violet (405 nm, 40 mW). For each sample, 50,000 events were recorded. MACSQuantify™ Software was used for data acquisition and Flowjo 9.0-10.10 (BD Biosciences, USA) was employed for flow cytometric data analysis. […] To simplify the comparison between groups, we calculated a “proliferation score” per sample. The proliferation score was defined as the weighted sum of all proliferations using the formula: "Proliferation score = 1*(% one division) + 2*(% two divisions) + 3*(% three division) + 4*(% four division) + 5*(% five divisions) + 6*(% six division) + 7* (% > six divisions). A higher weighted sum indicated more cell proliferation events.

[2] = human, in vivo; cited from earlier work
[3] = human, in vivo; cited from earlier work; remark: listed apart in the source
[4] = high-sensitivity samples (n = 8)

## C[C@@H](O)[C@@H]1NC(=O)[C@H](CCCCN)NC(=O)[C@@H](Cc2ccc(NC(N)=O)cc2)NC(=O)[C@H](Cc2ccc(NC(=O)[C@@H]3CC(=O)NC(=O)N3)cc2)NC(=O)[C@H](NC(=O)[C@H](Cc2ccc(Cl)cc2)NC(=O)CN2CCN(CC(=O)O)CCN(CC(=O)O)CCN(CC(=O)O)CC2)CSSC[C@@H](C(=O)N[C@H](Cc2ccc(O)cc2)C(N)=O)NC1=O [^177Lu-DOTA-JR11, metal not drawn] ({DOTA}-[Phe(4-Cl)][dC][Phe(4-NH2)](Dihydroorotyl(S))[dPhe(4-NHCONH2)]KTC[dY]-NH2; disulfide 2-7 (inferred); C-terminus assumed)
[1]; HSPC subpopulations
  Cell death compared to untreated cells: highest rates of cell death
[1]; n = 16, all HSPC subpopulations
  Proliferation compared to untreated cells, across all subpopulations: 69-79%
[1]; [4]
  Proliferation in HSC relative to untreated, mean ± SD: 42 ± 17%
  Proliferation in HSC relative to untreated, median: 44%
[2]
  Patients with prolonged grade 4 hematotoxicity: 4 of 7
[3]
  Incidence of t-MN: 5%
  Patients with t-MN: 2/40
